Assay results from article PMC2815779, “Structure and Kinetic Investigation of Streptococcus pyogenes Family GH38 α-Mannosidase” (PLoS ONE, 2010).

Assays:
purified protein [1] = substrate: Cc1cc(=O)oc2cc(O[C@H]3O[C@H](CO)[C@@H](O)[C@H](O)[C@@H]3O)ccc12; test: purified protein; assay type: biochemical, Streptococcus pyogenes; conditions: Zn2+
purified protein [2] = substrate: OC[C@H]1O[C@H](O[C@H]2[C@H](O)[C@@H](CO)OC(O)[C@H]2O)[C@@H](O)[C@@H](O)[C@@H]1O; test: purified protein; assay type: biochemical, Streptococcus pyogenes; conditions: Zn2+

B1: SpGH38 (Spy1604), family GH38 α-mannosidase (Streptococcus pyogenes serotype M1) (protein)
chain: MATKKVHIISHSHWDREWYMAYEQHHMRLINLIDDLLEVFQTDPDFHSFHLDGQTIILDDYLKVRPEREPEIRQAIASGKLRIGPFYILQDDFLTSSESNVRNMLIGKEDCDRWGASVPLGYFPDTFGNMGQTPQLMLKAGLQAAAFGRGIRPTGFNNQVDTSEKYSSQFSEISWQGPDNSRILGLLFANWYSNGNEIPTTEAEARLFWDKKLADAERFASTKHLLMMNGCDHQPVQLDVTKAIALANQLYPDYEFVHSCFEDYLADLADDLPENLSTVQGEITSQETDGWYTLANTASARIYLKQANTRVSRQLENITEPLAAMAYEVTSTYPHDQLRYAWKTLMQNHPHDSICGCSVDSVHREMMTRFEKAYEVGHYLAKEAAKQIADAIDTRDFPMDSQPFVLFNTSGHSKTSVAELSLTWKKYHFGQRFPKEVYQEAQEYLARLSQSFQIIDTSGQVRPEAEILGTSIAFDYDLPKRSFREPYFAIKVRLRLPITLPAMSWKTLALKLGNETTPSETVSLYDDSNQCLENGFLKVMIQTDGRLTITDKQSGLIYQDLLRFEDCGDIGNEYISRQPNHDQPFYADQGTIKLNIISNTAQVAELEIQQTFAIPISADKLLQAEMEAVIDITERQARRSQEKAELTLTTLIRMEKNNPRLQFTTRFDNQMTNHRLRVLFPTHLKTDHHLADSIFETVKRPNHPDATFWKNPSNPQHQECFVSLFDGENGVTIGNYGLNEYEILPDTNTIAITLLRSVGEMGDWGYFPTPEAQCLGKHSLSYSFESITKQTQFASYWRAQEGQVPVITTQTNQHEGTLAAEYSYLTGTNDQVALTAFKRRLADNALITRSYNLSNDKTCDFSLSLPNYNAKVTNLLEKDSKQSTPSQLGKAEILTLAWKKQ
notes: full length, residues 1-901, N-terminal His6-tag
Km (purified protein [1]): 3.6 ± 1.0 mM
Km (purified protein [2]): 27 ± 0.75 mM
